Reference: US20180217151A1
Each block holds one binder with its values, some of them ahead of it.

Key:
[1] = biological target: CD19 antigen on human PBMCs (human) (UniProt P15391); experiment: flow cytometry, human PBMCs, biotinylated Fab 1 µg/mL, SA-APC, before washing; median of control (background) 0.25
[2] = biological target: recombinant CD19 antigen (not stated (the Fab labels human PBMCs)) (UniProt P15391); experiment: SPR (Biacore), recombinant antigen (extracellular domain) immobilized by amine coupling, Fab as analyte, 1:1 binding mass transfer model
Chain of recombinant CD19 antigen (not stated (the Fab labels human PBMCs)) (P15391 20-291): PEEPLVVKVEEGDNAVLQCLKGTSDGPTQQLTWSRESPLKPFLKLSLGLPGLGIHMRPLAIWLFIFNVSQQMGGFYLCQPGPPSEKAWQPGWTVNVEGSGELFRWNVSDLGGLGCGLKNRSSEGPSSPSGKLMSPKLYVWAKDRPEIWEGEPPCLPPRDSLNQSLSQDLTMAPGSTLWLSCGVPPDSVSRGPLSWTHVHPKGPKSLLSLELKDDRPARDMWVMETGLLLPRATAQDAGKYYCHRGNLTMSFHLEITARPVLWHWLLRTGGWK

[3] = biological target: CD19 antigen on human PBMCs (human) (UniProt P15391); experiment: flow cytometry on human PBMCs, SA-APC median after five washing steps; background 0.2
[4] = biological target: CD19 antigen on human PBMCs (human) (UniProt P15391); experiment: flow cytometry, human PBMCs, biotinylated Fab 1 µg/mL, SA-APC, after five washing steps; enables reversible labeling: yes
[5] = biological target: CD45RA antigen on human PBMCs (human) (UniProt P08575); experiment: flow cytometry, human PBMCs, biotinylated Fab 1 µg/mL, SA-APC, after five washing steps; median of control (background) 0.1; enables reversible labeling: yes
[6] = biological target: CD45RA antigen on human PBMCs (human) (UniProt P08575); experiment: flow cytometry, human PBMCs, biotinylated Fab 1 µg/mL, SA-APC, before washing; median of control (background) 0.1
[7] = biological target: CD45RA antigen on human PBMCs (human) (UniProt P08575); experiment: flow cytometry, human PBMCs, biotinylated Fab 1 µg/mL, SA-APC, after five washing steps; enables reversible labeling: yes
[8] = biological target: CD8 antigen on human PBMCs (human) (UniProt P01732); experiment: flow cytometry, human PBMCs, biotinylated Fab 1 µg/mL, SA-APC, after five washing steps; enables reversible labeling: no
Chain of CD8 antigen on human PBMCs (human) (P01732 22-235): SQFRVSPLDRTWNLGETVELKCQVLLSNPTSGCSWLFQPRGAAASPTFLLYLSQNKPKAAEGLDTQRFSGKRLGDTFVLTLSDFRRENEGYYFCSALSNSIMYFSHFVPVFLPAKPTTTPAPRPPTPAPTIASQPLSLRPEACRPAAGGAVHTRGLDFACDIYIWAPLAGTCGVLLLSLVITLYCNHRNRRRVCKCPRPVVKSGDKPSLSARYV

[9] = biological target: recombinant CD8 antigen (not stated (the Fab labels human PBMCs)); experiment: SPR (Biacore), recombinant antigen (extracellular domain) immobilized by amine coupling, Fab as analyte, 1:1 binding mass transfer model
Chain of recombinant CD8 antigen (not stated (the Fab labels human PBMCs)) (P01732 22-182): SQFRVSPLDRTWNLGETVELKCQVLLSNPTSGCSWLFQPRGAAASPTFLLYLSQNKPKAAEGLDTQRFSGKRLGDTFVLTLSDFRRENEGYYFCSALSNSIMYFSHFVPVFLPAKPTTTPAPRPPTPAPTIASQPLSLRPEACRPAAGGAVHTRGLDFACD

[10] = biological target: CD8 antigen on human PBMCs (human) (UniProt P01732); experiment: flow cytometry, human PBMCs, biotinylated Fab 1 µg/mL, SA-APC, after five washing steps; median of control (background) 0.1; enables reversible labeling: no
[11] = biological target: CD8 antigen on human PBMCs (human) (UniProt P01732); experiment: flow cytometry, human PBMCs, biotinylated Fab 1 µg/mL, SA-APC, before washing; median of control (background) 0.1

Chain of CD19 antigen on human PBMCs (human) (P15391 20-556): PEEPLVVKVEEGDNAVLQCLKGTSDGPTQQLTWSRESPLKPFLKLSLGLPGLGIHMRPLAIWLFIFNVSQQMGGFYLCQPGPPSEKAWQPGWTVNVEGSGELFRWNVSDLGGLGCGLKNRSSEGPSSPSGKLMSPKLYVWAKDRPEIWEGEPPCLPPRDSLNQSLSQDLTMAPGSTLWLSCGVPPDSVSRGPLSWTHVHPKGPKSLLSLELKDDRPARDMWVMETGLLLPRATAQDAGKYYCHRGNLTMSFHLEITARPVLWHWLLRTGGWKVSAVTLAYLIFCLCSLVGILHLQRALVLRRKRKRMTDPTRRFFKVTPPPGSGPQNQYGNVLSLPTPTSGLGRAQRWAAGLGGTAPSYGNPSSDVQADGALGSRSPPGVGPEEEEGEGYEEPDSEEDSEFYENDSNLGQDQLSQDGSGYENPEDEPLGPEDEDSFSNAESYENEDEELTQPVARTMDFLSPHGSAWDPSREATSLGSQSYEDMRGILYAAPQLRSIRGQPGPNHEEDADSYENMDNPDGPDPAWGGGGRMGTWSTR

median value (i) [1]: 27 | Kd [2]: 7 nM | koff [2]: 0.0031 s⁻¹ | kon [2]: 440000 M⁻¹ s⁻¹ | median of remaining detectable label after removal of Fab [3]: 1.2 | % median value of the detected label after Fab removal (before = 100%) [4]: 4.4%
B1: SJ25-C1 pFab (Fab, from another filing, V domains shown)
VH: EVKLQQSGAELVRPGSSVKISCKASGYAFSSYWMNWVKQRPGQGLEWIGQIYPGDGDTNYNGKFKGQATLTADKSSSTAYMQLSGLTSEDSAVYFCARKTISSVVDFYFDYWGQGTTVTVSS
VL: DIELTQSPKFMSTSVGDRVSVTCKASQNVGTNVAWYQQKPGQSPKPLIYSATYRNSGVPDRFTGSGSGTDFTLTITNVQSKDLADYFCQQYNRYPYTSGGGTKLEI

median value after Fab removal (ii) [5]: 0.2 | median value (i) [6]: 2.9 | % median value of the detected label after Fab removal (before = 100%) [7]: 6.9%
B2: MEM56-LAV rFab (Fab, V domains shown)
VH: QVQLQQSGAELAKPGASVKMSCKASGYNFTRYWMHWIKQRPGQGLEWIGYINPNTGHTEYNQKFKDKATLTADKSSSTAYMQLSSLTSEDSAVYYCATYYYGSRRDAGQGTTLTVSS
VL: QIVLTQSPAIMSASLGERVTMTCTTSSSVSSSYLHWYQQKPGSSPKLWIYSTSNLASGVPARFSGSGSGTSYSLTISTVEAEDAATYYCHQYHRSPLTFGAGTKLELKR
modifications: In the cell assay the Fab was biotinylated with a thiol-reactive reagent (e.g. maleimide-PEO2-biotin) on cysteines of the reduced disulfide bridge; positions not stated.

% median value of the detected label after Fab removal (before = 100%) [8]: 51% | Kd [9]: 0.62 nM | koff [9]: 0.0013 s⁻¹ | kon [9]: 2.1e+06 M⁻¹ s⁻¹ | median value after Fab removal (ii) [10]: 23 | median value (i) [11]: 45
B3: OKT8 pFab (Fab, from another filing, V domains shown)
VH: EVQLQQSGAELVKPGASVKLSCTASGFNIKDTYIHFVRQRPEQGLEWIGRIDPANDNTLYASKFQGKATITADTSSNTAYMHLCSLTSGDTAVYYCGRGYGYYVFDHWGQGTTLTVSS
VL: DVQINQSPSFLAASPGETITINCRTSRSISQYLAWYQEKPGKTNKLLIYSGSTLQSGIPSRFSGSGSGTDFTLTISGLEPEDFAMYYCQQHNENPLTFGAGTKLELK
